Test [1] deals with T1, human CD70 expressed on the surface of cells (human, UniProt P32970 1-193).
T1 sequence (looked up): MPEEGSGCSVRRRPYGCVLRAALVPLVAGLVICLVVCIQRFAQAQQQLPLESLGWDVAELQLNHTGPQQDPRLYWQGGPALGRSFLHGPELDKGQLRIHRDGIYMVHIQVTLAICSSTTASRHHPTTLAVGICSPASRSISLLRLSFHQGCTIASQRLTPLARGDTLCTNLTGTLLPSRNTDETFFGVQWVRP
The experiment in a line: cell-based or functional assay.

The target of test [2] is T2, recombinant human CD27 Fc chimera (CD27-Fc) (human, UniProt P26842 21-192).
T2 construct: Bought reagent; also called recombinant CD27-Fc; Fc part of the bought chimera not given
T2 sequence (looked up): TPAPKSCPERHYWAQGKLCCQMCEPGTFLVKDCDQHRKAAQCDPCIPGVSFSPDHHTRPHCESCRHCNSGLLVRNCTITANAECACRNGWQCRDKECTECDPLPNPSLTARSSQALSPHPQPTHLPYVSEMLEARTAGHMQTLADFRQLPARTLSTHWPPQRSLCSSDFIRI
The experiment in a line: ELISA; captured Flag-TNC-CD70. On the technique in general: An ELISA detects its analyte on a solid surface through an enzyme-linked reagent.

B1: 53A2 mAb (full-length human IgG1, HEK293) (antibody, V domains shown)
VH: EVQLVESGGGLVQPGGSLRLSCAASGFTFSVYYMNWVRQAPGKGLEWVSDINNEGGTTYYADSVKGRFTISRDNSKNSLYLQMNSLRAEDTAVYYCARDAGYSNHVPIFDSWGQGTLVTVSS
VL: QAVVTQEPSFSVSPGGTVTLTCGLKSGSVTSDNFPTWYQQTPGQAPRLLIYNTNTRHSGVPDRFSGSILGNKAALTITGAQADDEAEYFCALFISNPSVEFGGGTQLTVLG
For B1, the “Raji co-culture assay IC50 relative to 27B3” value in test [1] is 0.8 fold of 27B3.

B2: 41D12 mAb (full-length human IgG1, HEK293) (antibody, V domains shown)
VH: EVQLVESGGGLVQPGGSLRLSCAASGFTFSVYYMNWVRQAPGKGLEWVSDINNEGGTTYYADSVKGRFTISRDNSKNSLYLQMNSLRAEDTAVYYCARDAGYSNHVPIFDSWGQGTLVTVSS
VL: QAVVTQEPSLTVSPGGTVTLTCGLKSGSVTSDNFPTWYQQTPGQAPRLLIYNTNTRHSGVPDRFSGSILGNKAALTITGAQADDEAEYFCALFISNPSVEFGGGTQLTVLG
Take B2: the “Raji co-culture assay IC50 relative to 27B3” value in test [1] was 1.2 fold of 27B3.

B3: 40F1 mAb (full-length human IgG1, HEK293) (antibody, V domains shown)
VH: EVQLVESGGGLVQPGGSLRLSCAASGFTFSVYYMNWVRQAPGKGLEWVSDINNEGGATYYADSVKGRFTISRDNSKNSLYLQMNSLRAEDTAVYYCARDAGYSNHVPIFDSWGQGTQVTVSS
VL: QAVVTQEPSFSVSPGGTVTLTCGLKSGSVTSDNFPTWYQQTPGQAPRLLIYNTNTRHSGVPDRFSGSILGNKAALTITGAQADDEAEYFCALFISNPSVEFGGGTQLTVLG
Regarding B3, the “Raji co-culture assay IC50 relative to 27B3” value in test [1] was 1.8 fold of 27B3.

B4: 35G2 mAb (full-length human IgG1, HEK293) (antibody, V domains shown)
VH: EVQLVESGGGLVQPGGSLRLSCAASGFTFSVYYMNWVRQAPGKGLEWVSDINNEGGTTYYADSVKGRFTISRDNAKNTLYLQMNSLKPEDTAVYYCARDAGYSNHVPIFDSWGQGTLVTVSS
VL: QTVVTQEPSFSVSPGGTVTLTCGLKSGSVTSTNFPTWYQQTPGQAPRLLIYNTNSRHSGVPDRFSGSILGNKAALTITGAQADDEADYFCALFISNPSVEFGGGTQLTVLG
For the molecule B4, the “Raji co-culture assay IC50 relative to 27B3” value in test [1] is 1.4 fold of 27B3.

B5: human-mouse CD70 chimera chim-3 (Flag-TNC-CD70) (ligand, not shown: small tags and cut ends)
chain: HPEPHTAELQLNLTVPRKDPTLRWGAGPALGRSFTHGPELEEGHLRIHQDGLYRLHIQVTLANCSSPGSTLQHRATLAVGICSPASRSISLLRLSFHQGCTIASQRLTPLARGDTLCTNLTGTLLPSRNTDETFFGVQWVRP
notes: also called chimera 3
With B5, the binding result in test [2] was “binds”.

B6: human-mouse CD70 chimera chim-4 (Flag-TNC-CD70) (ligand, not shown: small tags and cut ends)
chain: HPEPHTAELQLNLTVPRKDPTLRWGAGPALGRSFTHGPELEEGHLRIHQDGLYRLHIQVTLANCSSPGSTLQHRATLAVGICSPAAHGISLLRGRFGQDCTVALQRLTYLVHGDVLCTNLTGTLLPSRNTDETFFGVQWVRP
notes: also called chimera 4
B6: the binding result in test [2] is recorded as “binds”.

B7: human-mouse CD70 chimera chim-2.2 (Flag-TNC-CD70) (ligand)
chain: HPEPHTAELQLNLTVPRKDPTLRWGAGPALGRSFTHGPELEEGHLRIHRDGIYMVHIQVTLAICSSTTASRHHPTTLAVGICSPASRSISLLRLSFHQGCTIASQRLTPLARGDTLCTNLTGTLLPSRNTDETFFGVQWVRP
notes: also called chimera 2.2; not shown: N-terminal Flag tag, TNC trimerisation domain and any linkers of the Flag-TNC-CD70 construct
Consider B7, for which the binding result in test [2] was “binds”.

B8: human-mouse CD70 chimera chim-2.4 (Flag-TNC-CD70) (ligand, not shown: small tags and cut ends)
chain: HPEPHTAELQLNLTVPRKDPTLRWGAGPALGRSFTHGPELEEGHLRIHQDGLYRLHIQVTLAICSSTTASRHHPTTLAVGICSPASRSISLLRLSFHQGCTIASQRLTPLARGDTLCTNLTGTLLPSRNTDETFFGVQWVRP
notes: also called chimera 2.4
With B8, in test [2], the binding result is recorded as “binds”.

B9: human-mouse CD70 chimera chim-2 (Flag-TNC-CD70) (ligand, not shown: small tags and cut ends)
chain: HPEPHTAELQLNLTVPRKDPTLRWGAGPALGRSFTHGPELEEGHLRIHQDGLYRLHIQVTLANCSSTTASRHHPTTLAVGICSPASRSISLLRLSFHQGCTIASQRLTPLARGDTLCTNLTGTLLPSRNTDETFFGVQWVRP
notes: also called chimera 2
For B9, the binding result in test [2] was “binds”.

Source of the values: patent US20150266963A1 (ARGEN X B V, published 2015).
